According to patent US20250376529A1 (Amgen, published 2025):

T1: Rhesus GIPR (rhesus, UniProt F7E1R9 22-466)
T1 sequence: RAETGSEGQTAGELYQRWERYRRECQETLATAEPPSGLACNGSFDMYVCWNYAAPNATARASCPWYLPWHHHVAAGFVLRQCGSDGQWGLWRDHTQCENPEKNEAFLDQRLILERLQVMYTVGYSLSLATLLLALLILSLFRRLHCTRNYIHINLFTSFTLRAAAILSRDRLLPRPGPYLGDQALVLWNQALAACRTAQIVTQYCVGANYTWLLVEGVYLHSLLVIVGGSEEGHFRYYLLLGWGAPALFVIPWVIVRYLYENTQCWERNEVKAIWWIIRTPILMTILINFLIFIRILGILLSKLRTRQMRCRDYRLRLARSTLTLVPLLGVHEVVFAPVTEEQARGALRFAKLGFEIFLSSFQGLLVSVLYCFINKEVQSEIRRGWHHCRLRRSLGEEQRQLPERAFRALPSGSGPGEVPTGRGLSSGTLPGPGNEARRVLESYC


Target: T1, Rhesus GIPR
Assay: cell-based or functional assay

Binder | Rhesus GIPR CAMP Assay (Conc. mAb @ 60% Inhibition in nM) [nM]
6H1.004 (antibody, human IgG1, kappa, N297G, V domains shown, also called iPS:359873; iPS:359875) VH: not shown VL: DIQMTQSPSSLSASIGDRVTITCRASQDIRDYLGWYQQKPGKAPKLLIYGASSLQSGVPSRFSGSGSGTEFTLTISSLQPEDFATYYCLQHNNYPFTFGQGTKVDIKR | 0.79
6H1.005 (antibody, human IgG1, kappa, N297G, V domains shown) VH: not shown VL: DIQMTQSPSSLSASIGDRVTITCRASQDIRDYLGWYQQKPGKAPKLLIYGASSLQSGVPSRFSGSGSGTEFTLTISSLQPEDFATYYCLQHNNYPFTFGQGTKVDIKR | 0.49
6H1.006 (antibody, human IgG1, kappa, N297G, V domains shown) VH: QVQLVESGGGVVQPGRSLRLSCAASGFTFSYFGMHWVRQAPGKGLEWVAVIWYDGSNKYYADSVKGRFTISRDNSKNTLYLQMNSLRAEDTAVYYCARDGTIFGVLLGDYWGQGTLVTVSS VL: DIQMTQSPSSLSASIGDRVTITCRASQDIRDYLGWYQQKPGKAPKLLIYGASSLQSGVPSRFSGSGSGTEFTLTISSLQPEDFATYYCLQHNNYPFTFGPGTKVDIKR | 0.47
6H1.007 (antibody, human IgG1, kappa, N297G, V domains shown) VH: QVQLVESGGGVVQPGRSLRLSCAASGFTFSYFGMHWVRQAPGKGLEWVAVIWYDASNKYYADSVKGRFTISRDNSKNTLYLQMNSLRAEDTAVYYCARDGTIFGVLLGDYWGQGTLVTVSS VL: DIQMTQSPSSLSASIGDRVTITCRASQDIRDYLGWYQQKPGKAPKLLIYGASSLQSGVPSRFSGSGSGTEFTLTISSLQPEDFATYYCLQHNNYPFTFGPGTKVDIKR | 0.55
6H1.008 (antibody, human IgG1, kappa, N297G, V domains shown) VH: not shown VL: DIQMTQSPSSLSASIGDRVTITCRASQDIRDYLGWYQQKPGKAPKLLIYGASSLQSGVPSRFSGSGSGTEFTLTISSLQPEDFATYYCLQHNNYPFTFGPGTKVDIKR | 0.44
6H1.009 (antibody, human IgG1, kappa, N297G) heavy: not shown light: DIQMTQSPSSLSASIGDRVTITCRASQDIRDYLGWYQQKPGKAPKRLIYGASSLQSGVPSRFSGSGSGTEFTLTISSLQPEDFATYYCLQHNNYPFTFGQGTKVDIKRTVAAPSVFIFPPSDEQLKSGTASVVCLLNNFYPREAKVQWKVDNALQSGNSQESVTEQDSKDSTYSLSSTLTLSKADYEKHKVYACEVTHQGLSSPVTKSFNRGEC | 0.15
18F2 (antibody, human IgG1, kappa, N297G, V domains shown) VH: QVQLVESGGGVVQPGRSLRLSCAASGFTFSNFGMHWVRQAPGKGLEWVAVIWYDGSNENYADSVKGRFTISRDNSKNTLYLHMNSLRAADTAVYYCARDGTIFGVVLGDYWGQGTLVTVSS VL: DIQMTQSPSSLSASIGDRVTITCRASQDLRNYLGWYHQKPGKAPKRLIYGASSLQSGVPSRFSGSGSGTEFTLTISSLQPEDFATYYCLQHNNYPFTFGPGTKVDIKR | 0.8
18F2.002 (antibody, human IgG1, kappa, N297G, V domains shown) VH: not shown VL: DIQMTQSPSSLSASIGDRVTITCRASQDLRNYLGWYQQKPGKAPKLLIYGASSLQSGVPSRFSGSGSGTEFTLTISSLQPEDFATYYCLQHNNYPFTFGPGTKVDIKR | 2.23
18F2.003 (antibody, human IgG1, kappa, N297G, V domains shown) VH: QVQLVESGGGVVQPGRSLRLSCAASGFTFSNFGMHWVRQAPGKGLEWVAVIWYDASNENYADAVKGRFTISRDNSKNTLYLHMNSLRAADTAVYYCARDGTIFGVVLGDYWGQGTLVTVSS VL: DIQMTQSPSSLSASIGDRVTITCRASQDLRNYLGWYQQKPGKAPKLLIYGASSLQSGVPSRFSGSGSGTEFTLTISSLQPEDFATYYCLQHNNYPFTFGPGTKVDIKR | 2.01
18F2.004 (antibody, human IgG1, kappa, N297G, V domains shown) VH: not shown VL: DIQMTQSPSSLSASIGDRVTITCRASQDLRNYLGWYHQKPGKAPKLLIYGASSLQSGVPSRFSGSGSGTEFTLTISSLQPEDFATYYCLQHNNYPFTFGPGTKVDIKR | 2.72
18F2.005 (antibody, human IgG1, kappa, N297G, V domains shown) VH: not shown VL: DIQMTQSPSSLSASIGDRVTITCRASQDLRNYLGWYQQKPGKAPKRLIYGASSLQSGVPSRFSGSGSGTEFTLTISSLQPEDFATYYCLQHNNYPFTFGPGTKVDIKR | 1.13
18F2.006 (antibody, human IgG1, kappa, N297G, V domains shown) VH: QVQLVESGGGVVQPGRSLRLSCAASGFTFSNFGMHWVRQAPGKGLEWVAVIWYDASNENYADAVKGRFTISRDNSKNTLYLHMNSLRAADTAVYYCARDGTIFGVVLGDYWGQGTLVTVSS VL: DIQMTQSPSSLSASIGDRVTITCRASQDLRNYLGWYQQKPGKAPKRLIYGASSLQSGVPSRFSGSGSGTEFTLTISSLQPEDFATYYCLQHNNYPFTFGPGTKVDIKR | 0.52
18F2.007 (antibody, human IgG1, kappa, N297G, V domains shown) VH: QVQLVESGGGVVQPGRSLRLSCAASGFTFSNFGMHWVRQAPGKGLEWVAVIWYDASNENYADAVKGRFTISRDNSKNTLYLHMNSLRAADTAVYYCARDGTIFGVVLGDYWGQGTLVTVSS VL: DIQMTQSPSSLSASIGDRVTITCRASQDLRNYLGWYHQKPGKAPKLLIYGASSLQSGVPSRFSGSGSGTEFTLTISSLQPEDFATYYCLQHNNYPFTFGPGTKVDIKR | 1.94
18F2.008 (antibody, human IgG1, kappa, N297G, V domains shown) VH: not shown VL: DIQMTQSPSSLSASIGDRVTITCRASQDLRNYLGWYHQKPGKAPKRLIYGASSLQSGVPSRFSGSGSGTEFTLTISSLQPEDFATYYCLQHNNYPFTFGPGTKVDIKR | 1.76
18F2.009 (antibody, human IgG1, kappa, N297G, V domains shown) VH: not shown VL: DIQMTQSPSSLSASIGDRVTITCRASQDLRNYLGWYQQKPGKAPKLLIYGASSLQSGVPSRFSGSGSGTEFTLTISSLQPEDFATYYCLQHNNYPFTFGPGTKVDIKR | 1.28
18F2.010 (antibody, human IgG1, kappa, N297G, V domains shown) VH: QVQLVESGGGVVQPGRSLRLSCAASGFTFSNFGMHWVRQAPGKGLEWVAVIWYDASNENYADSVKGRFTISRDNSKNTLYLQMNSLRAADTAVYYCARDGTIFGVVLGDYWGQGTLVTVSS VL: DIQMTQSPSSLSASIGDRVTITCRASQDLRNYLGWYQQKPGKAPKLLIYGASSLQSGVPSRFSGSGSGTEFTLTISSLQPEDFATYYCLQHNNYPFTFGPGTKVDIKR | 1.75
6A5.004.007 (antibody, human IgG1, kappa, N297G, V domains shown) VH: QVQLVESGGGVVQPGRSLRLSCAASGFSFSSYGMHWVRQPPGKGLEWVAAIWYDANNKYYADAVKGRFTISRDSSKNTLYLQMNSLRAEDTAVYYCARDRTIFGVVLEYWGQGTLVTVSS VL: not shown | 0.61
6A5.004.008 (antibody, human IgG1, kappa, N297G, V domains shown) VH: QVQLVESGGGVVQPGRSLRLSCAASGFSFSSYGMHWVRQPPGKGLEWVAAIWYDGNNKYYADAVKGRFTISRDSSKNTLYLQMNSLRAEDTAVYYCARDRTIFGVVLEYWGQGTLVTVSS VL: DIQMTQSPSSLSASVGDRVTITCQASQDITNYLNWYQQKPGKAPKLLIYDASNLEPGVPSRFSGSGSGTDFTLTISSLQPEDFATYYCQQYDDLFTFGPGTKVDIKR | 0.82
5G12.006.001 (antibody, human IgG1, kappa, N297G) heavy: not shown light: DIQLTQSPSSLSASVGDRVTITCRASQTISRFLNWYQQKPGKAPELLIYVASSLQSGVPSRFSGSGSGTDFTLTISSLQPEDFATYYCQQSYSTLISFGQGTKLEIKRTVAAPSVFIFPPSDEQLKSGTASVVCLLNNFYPREAKVQWKVDNALQSGNSQESVTEQDSKDSTYSLSSTLTLSKADYEKHKVYACEVTHQGLSSPVTKSFNRGEC | 0.9
5G12.005.001 (antibody, human IgG1, kappa, N297G, V domains shown) VH: not shown VL: DIQLTQSPSSLSASVGDRVTITCRASQTISRFLNWYQQKPGKAPKLLIYVASSLQSGVPSRFSGSGSGTDFTLTISSLQPEDFATYYCQQSYSTLLSFGQGTKLEIKR | 10.9
5G12.006 (antibody, human IgG1, kappa, N297G, V domains shown) VH: QVQLVESGGGVVQPGRSLRLSCTASGFTFSSYGIHWVRQAPGKGLEWVAVIWYDGSNKFHADSVKGRFTISRDNSKNTLYLQMNSLRAEDSAMYFCARGKVAGMPEAFEIWGQGTKVTVSS VL: DIQLTQSPSSLSASVGDRVTITCRASQTISRFLNWYQQKPGKAPELLIYVASSLQSGVPSRFSGSGSGTDFTLTISSLQPEDFATYYCQQSYSTLISFGQGTKLEITR | 0.8
5G12.006.002 (antibody, human IgG1, kappa, N297G, V domains shown) VH: not shown VL: DIQLTQSPSSLSASVGDRVTITCRASQTISRFLNWYQQKPGKAPELLIYVASSLQSGVPSRFSGSGSGTDFTLTISSLQPEDFATYYCQQSYSTLISFGQGTKLEIKR | 1
5G12.006.005 (antibody, human IgG1, kappa, N297G, V domains shown) VH: QVQLVESGGGVVQPGRSLRLSCAASGFTFSSYGIHWVRQAPGKGLEWVAVIWYDASNKFHADSVKGRFTISRDNSKNTLYLQMNSLRAEDSAMYFCARGKVAGMPEAFEIWGQGTKVTVSS VL: DIQLTQSPSSLSASVGDRVTITCRASQTISRFLNWYQQKPGKAPELLIYVASSLQSGVPSRFSGSGSGTDFTLTISSLQPEDFATYYCQQSYSTLISFGQGTKLEIKR | 5.3
5G12.006.006 (antibody, human IgG1, kappa, N297G, V domains shown) VH: not shown VL: DIQLTQSPSSLSASVGDRVTITCRASQTISRFLNWYQQKPGKAPELLIYVASSLQSGVPSRFSGSGSGTDFTLTISSLQPEDFATYYCQQSYSTLISFGQGTKLEIKR | 0.9
4H9.004.005 (antibody, human IgG1, kappa, N297G, V domains shown) VH: not shown VL: DIQMTQSPSSLSASVGDRVTITCRASQGIRNELGWYQQKPGKAPKRLIYGASSLQSGVPSRFSGSGSGTEFTLTISSLQPEDFVTYYCLQHNSYPFTFGQGTKVDVKR | 0.65
